Molecular target: T1, GFP (non-modified EGFP) (UniProt P42212 1-238 = GFP)
T1 construct: also called GFP alone; original GFP
Assay: affinity chromatography on Ni-NTA-bound PDZ, Western blot with anti-GFP
Text: To carry out the affinity chromatography assay, bacterially-expressed PDZ domains and EGFP derivatives were produced and fused to the different target peptides. The original and modified PDZ domains were expressed in E. coli XL1-Blue as fusions with 6XHis. The EGFP-peptides fusions were expressed in E. coli BL21 as described in Sambrook et al, 1989, Molecular Cloning: A Laboratory Manual, 2nd Ed., Vol 3. The bacterially expressed PDZ domains were then bound to nickel resin (Ni-NTA agarose, Quiagen) as described by the manufacturer. The resin-bound PDZ domains were then incubated with E.coli extracts made from bacteria expressing each of the target peptide-GFP fusions and washed four times with 50 mM NaH₂PO₄, 300 mM NaCl; 20 mM Imidazole; 0,1% of TritonX-100 to remove any unbound proteins. The bound proteins were eluted using 50 mM NaH₂PO₄, 300 mM NaCl; 200 mM Imidazole and analyzed by Western blot using antibodies against GFP to determine the presence of EGFP fused to the target peptide.

B1: PDZ-3, third PDZ domain of mouse PSD-95 (amino acids 302-402) fused to polyhistidine (6XHis), from plasmid pQEPDZ-3 (other)
chain: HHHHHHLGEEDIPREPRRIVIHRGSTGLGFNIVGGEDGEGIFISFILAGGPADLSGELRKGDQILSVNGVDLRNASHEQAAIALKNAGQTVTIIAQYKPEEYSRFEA
notes: range 302-402; also called original PDZ domain; the original PDZ
binding result: no binding

— patent US20030059827A1 (published 2003)
